Data from IntAct's records for PubMed 16902413.

Target: nebu_human NEB (UniProt P20929)

Substance: Titin (Homo sapiens), Q8WZ42 P258G
- effect of a mutation on the interaction: decreasing interaction

Substance: Titin (Homo sapiens), Q8WZ42 P254G
- effect of a mutation on the interaction: decreasing interaction

Substance: Titin (Homo sapiens), Q8WZ42 P268G
- effect of a mutation on the interaction: decreasing interaction

Substance: Titin (Homo sapiens), Q8WZ42 P266G
- effect of a mutation on the interaction: decreasing interaction

Substance: Titin (Homo sapiens), Q8WZ42 P269G
- effect of a mutation on the interaction: decreasing interaction
